From patent US20230279406A1
Blank lines part the entries; values can stand above or below the binder they belong to.

Legend:
Test in all cases: cell-based or functional assay
[1] = molecular target: T1, CD376 PV1-RfxCas13d-566C-NLS-BGHpA
T1 sequence: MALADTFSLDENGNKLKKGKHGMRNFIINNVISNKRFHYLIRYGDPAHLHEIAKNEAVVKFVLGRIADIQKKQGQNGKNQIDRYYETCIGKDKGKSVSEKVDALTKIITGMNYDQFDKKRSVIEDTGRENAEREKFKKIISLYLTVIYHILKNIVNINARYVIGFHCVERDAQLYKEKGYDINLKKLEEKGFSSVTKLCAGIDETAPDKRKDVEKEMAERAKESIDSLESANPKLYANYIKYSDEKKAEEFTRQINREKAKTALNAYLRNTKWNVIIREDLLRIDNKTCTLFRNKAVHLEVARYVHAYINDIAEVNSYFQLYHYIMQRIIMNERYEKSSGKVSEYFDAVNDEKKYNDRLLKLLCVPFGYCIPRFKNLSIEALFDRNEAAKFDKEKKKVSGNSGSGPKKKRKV

[2] = molecular target: CD176 PV1-tandem CaffVHH-L1-iCre-271C-NLS-BGHpA
[3] = molecular target: T2, CD380 PV1-RfxCas13d-656C-NLS-BGHpA
T2 sequence: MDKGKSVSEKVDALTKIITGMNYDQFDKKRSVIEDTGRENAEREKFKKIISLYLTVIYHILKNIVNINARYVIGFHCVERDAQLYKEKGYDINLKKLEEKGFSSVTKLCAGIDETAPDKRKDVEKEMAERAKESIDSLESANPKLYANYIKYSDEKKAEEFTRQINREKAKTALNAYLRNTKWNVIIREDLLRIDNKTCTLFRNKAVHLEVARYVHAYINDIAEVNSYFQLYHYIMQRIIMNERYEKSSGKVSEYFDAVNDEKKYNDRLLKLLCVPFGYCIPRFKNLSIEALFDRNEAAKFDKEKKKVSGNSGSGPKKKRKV

CD176 PV1-tandem CaffVHH-L1-iCre-271C-NLS-BGHpA, sequence (chain, as listed by the source): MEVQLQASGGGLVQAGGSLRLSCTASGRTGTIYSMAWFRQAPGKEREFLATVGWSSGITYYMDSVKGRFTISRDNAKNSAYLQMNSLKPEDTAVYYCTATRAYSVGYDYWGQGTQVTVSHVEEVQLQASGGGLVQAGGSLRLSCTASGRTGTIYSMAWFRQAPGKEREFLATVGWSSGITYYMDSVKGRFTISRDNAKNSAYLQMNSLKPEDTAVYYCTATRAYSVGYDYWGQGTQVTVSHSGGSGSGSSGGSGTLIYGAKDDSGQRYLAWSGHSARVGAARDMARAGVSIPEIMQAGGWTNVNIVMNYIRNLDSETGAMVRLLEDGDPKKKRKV

gRNA induced mCherry knockdown efficiency, no CID domain [1]: < 80%
B1: CD375 PV1-RfxCas13d-N565-NLS-BGHpA (protein)
chain: MIEKKKSFAKGMGVKSTLVSGSKVYMTTFAEGSDARLEKIVEGDSIRSVNEGEAFSAEMADKNAGYKIGNAKFSHPKGYAVVANNPLYTGPVQQDMLGLKETLEKRYFGESADGNDNICIQVIHNILDIEKILAEYITNAAYAVNNISGLDKDIIGFGKFSTVYTYDEFKDPEHHRAAFNNNDKLINAIKAQYDEFDNFLDNPRLGYFGQAFFSKEGRNYIINYGNECYDILALLSGLRHWVVHNNEEESRISRTWLYNLDKNLDNEYISTLNYLYDRITNELTNSFSKNSAANVNYIAETLGINPAEFAEQYFRFSIMKEQKNLGFNITKLREVMLDRKDMSEIRKNHKVFDSIRTKVYTMMDFVIYRYYIEEDAKVAAANKSLPDNEKSLSEKDIFVINLRGSFNDDQKDALYYDEANRIWRKLENIMHNIKEFRGNKTREYKKKDAPRLPRILPAGRDVSAFSKLMYALTMFLDGKEINDLLTTLINKFDNIQSFLKVMPLIGVNAKFVEEYAFFKDSAKIADELRLIKSFARMGEPIADARRAMYIDAIRILGTNLSYDELKPKKKRKV

recombination upon caffeine induction, tandem against single CaffVHH split Cre 270/271 [2]: < 13 fold
B2: CD175 PV1-iCre-N270-L1-tandem CaffVHH-NLS-BGHpA (protein)
chain: MSNLLTVHQNLPALPVDATSDEVRKNLMDMFRDRQAFSEHTWKMLLSVCRSWAAWCKLNNRKWFPAEPEDVRDYLLYLQARGLAVKTIQQHLGQLNMLHRRSGLPRPSDSNAVSLVMRRIRKENVDAGERAKQALAFERTDFDQVRSLMENSDRCQDIRNLAFLGIAYNTLLRIAEIARIRVKDISRTDGGRMLIHIGRTKTLVSTAGVEKALSLGVTKLVERWISVSGVADDPNNYLFCRVRKNGVAAPSATSQLSTRALEGIFEATHRSGGSGSGSSGGSGTMEVQLQASGGGLVQAGGSLRLSCTASGRTGTIYSMAWFRQAPGKEREFLATVGWSSGITYYMDSVKGRFTISRDNAKNSAYLQMNSLKPEDTAVYYCTATRAYSVGYDYWGQGTQVTVSHVEEVQLQASGGGLVQAGGSLRLSCTASGRTGTIYSMAWFRQAPGKEREFLATVGWSSGITYYMDSVKGRFTISRDNAKNSAYLQMNSLKPEDTAVYYCTATRAYSVGYDYWGQGTQVTVSHPKKKRKV

gRNA induced mCherry knockdown efficiency, no CID domain [3]: < 80%
B3: CD379 PV1-RfxCas13d-N655-NLS-BGHpA (protein)
chain: MIEKKKSFAKGMGVKSTLVSGSKVYMTTFAEGSDARLEKIVEGDSIRSVNEGEAFSAEMADKNAGYKIGNAKFSHPKGYAVVANNPLYTGPVQQDMLGLKETLEKRYFGESADGNDNICIQVIHNILDIEKILAEYITNAAYAVNNISGLDKDIIGFGKFSTVYTYDEFKDPEHHRAAFNNNDKLINAIKAQYDEFDNFLDNPRLGYFGQAFFSKEGRNYIINYGNECYDILALLSGLRHWVVHNNEEESRISRTWLYNLDKNLDNEYISTLNYLYDRITNELTNSFSKNSAANVNYIAETLGINPAEFAEQYFRFSIMKEQKNLGFNITKLREVMLDRKDMSEIRKNHKVFDSIRTKVYTMMDFVIYRYYIEEDAKVAAANKSLPDNEKSLSEKDIFVINLRGSFNDDQKDALYYDEANRIWRKLENIMHNIKEFRGNKTREYKKKDAPRLPRILPAGRDVSAFSKLMYALTMFLDGKEINDLLTTLINKFDNIQSFLKVMPLIGVNAKFVEEYAFFKDSAKIADELRLIKSFARMGEPIADARRAMYIDAIRILGTNLSYDELKALADTFSLDENGNKLKKGKHGMRNFIINNVISNKRFHYLIRYGDPAHLHEIAKNEAVVKFVLGRIADIQKKQGQNGKNQIDRYYETCIGKPKKKRKV
